Experimental findings from article doi:10.1101/2022.06.14.496074 (bioRxiv, 2022) are described below.

The target of assay [1] is T1, AcrA (E. coli (K12 derived strain)), P0AE06.
T1 chain: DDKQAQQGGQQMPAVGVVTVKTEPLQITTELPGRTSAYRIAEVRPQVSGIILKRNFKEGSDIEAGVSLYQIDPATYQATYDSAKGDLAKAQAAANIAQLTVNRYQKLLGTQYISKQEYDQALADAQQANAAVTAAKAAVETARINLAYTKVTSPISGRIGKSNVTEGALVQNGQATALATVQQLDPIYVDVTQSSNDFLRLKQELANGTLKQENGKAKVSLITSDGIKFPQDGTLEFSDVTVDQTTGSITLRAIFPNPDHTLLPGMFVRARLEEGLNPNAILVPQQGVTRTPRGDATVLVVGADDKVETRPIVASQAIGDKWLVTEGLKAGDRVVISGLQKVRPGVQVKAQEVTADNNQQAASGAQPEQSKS
Description: SEC. To be noted: remark: other sources report otherwise.

Assay [2] concerns the target T2, TolC (E. coli, UniProt P02930 23-493).
T2 sequence: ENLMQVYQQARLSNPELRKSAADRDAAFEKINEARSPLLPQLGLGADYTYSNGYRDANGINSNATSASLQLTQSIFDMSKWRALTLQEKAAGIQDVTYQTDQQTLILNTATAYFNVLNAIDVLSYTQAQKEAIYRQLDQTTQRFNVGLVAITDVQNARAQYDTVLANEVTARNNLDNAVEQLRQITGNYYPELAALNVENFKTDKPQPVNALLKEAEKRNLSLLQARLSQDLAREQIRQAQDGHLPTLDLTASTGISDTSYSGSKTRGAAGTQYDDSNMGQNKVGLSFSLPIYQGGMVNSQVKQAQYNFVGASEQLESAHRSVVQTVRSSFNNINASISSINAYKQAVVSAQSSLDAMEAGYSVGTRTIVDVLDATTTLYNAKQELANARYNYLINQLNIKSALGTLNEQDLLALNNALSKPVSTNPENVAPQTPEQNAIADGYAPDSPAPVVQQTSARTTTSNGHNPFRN
Nature of the assay: single-channel electrophysiology.

B1: AcrA (natural protein)
chain: T1 chain
As to B1, in assay [1], the stoichiometry N is 2. Moreover, the binding result in assay [2] is on record as “binds”.
